Data published in paper PMC10973363, “Insights into the modulation of bacterial NADase activity by phage proteins” (Nature Communications, 2024).
Changes are numbered by the printed parent chain.

How the values were obtained:
[1] = molecular target: T1, defense-associated sirtuin 2 (DSR2), full-length wild type (Bacillus subtilis 29R, UniProt P0DXN8 1-1005); test: AUC; sedimentation velocity, samples at 1 mg/mL in gel-filtration buffer (25 mM Tris-HCl pH 7.5, 150 mM NaCl, 2 mM DTT), SEDFIT and SEDPHAT; settings: both partners purified
T1 construct: DSR2 from Bacillus subtilis 29R, WP_029317421; Cloned into the 2CT-10 vector (Addgene plasmid #55209) with His-MBP tag and TEV site; DSR2-TTP was cloned into a pET-derived vector with an N-terminal His tag; also called WT DSR2; full-length DSR2; source: E. coli Rosetta (DE3), purified (Ni-NTA, TEV cleavage, anion exchange, gel filtration); not shown: His, N-terminal, cleaved; MBP, N-terminal, …
T1 sequence (looked up): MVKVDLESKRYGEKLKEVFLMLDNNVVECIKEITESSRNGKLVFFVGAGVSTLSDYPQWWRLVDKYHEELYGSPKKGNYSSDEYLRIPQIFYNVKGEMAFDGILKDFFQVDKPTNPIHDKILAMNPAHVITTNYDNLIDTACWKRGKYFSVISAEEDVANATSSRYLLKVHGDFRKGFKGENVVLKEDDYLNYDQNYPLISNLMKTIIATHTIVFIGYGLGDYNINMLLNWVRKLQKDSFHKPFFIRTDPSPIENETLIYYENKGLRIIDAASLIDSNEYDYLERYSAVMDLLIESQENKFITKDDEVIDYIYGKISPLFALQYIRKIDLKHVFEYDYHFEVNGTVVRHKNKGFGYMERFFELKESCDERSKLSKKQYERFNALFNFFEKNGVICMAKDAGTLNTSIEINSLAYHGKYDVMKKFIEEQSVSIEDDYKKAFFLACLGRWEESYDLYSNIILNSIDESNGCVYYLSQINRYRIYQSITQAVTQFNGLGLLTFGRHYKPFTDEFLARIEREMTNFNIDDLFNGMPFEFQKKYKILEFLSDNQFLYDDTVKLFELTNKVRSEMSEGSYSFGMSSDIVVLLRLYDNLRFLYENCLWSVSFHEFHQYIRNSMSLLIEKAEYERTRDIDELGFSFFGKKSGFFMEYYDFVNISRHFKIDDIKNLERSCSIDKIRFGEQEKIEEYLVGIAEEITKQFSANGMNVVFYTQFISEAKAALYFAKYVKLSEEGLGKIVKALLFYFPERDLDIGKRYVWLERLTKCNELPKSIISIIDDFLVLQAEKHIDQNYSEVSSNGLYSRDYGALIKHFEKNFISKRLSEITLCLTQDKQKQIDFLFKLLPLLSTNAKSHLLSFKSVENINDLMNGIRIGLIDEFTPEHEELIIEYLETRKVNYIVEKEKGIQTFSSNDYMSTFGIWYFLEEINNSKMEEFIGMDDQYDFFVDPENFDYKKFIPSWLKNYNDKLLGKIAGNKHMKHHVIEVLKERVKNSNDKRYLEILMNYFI

DSR2 K960A/D993A = molecular target: T2, DSR2 K960A/D993A (Bacillus subtilis 29R, UniProt P0DXN8 1-1005, K960A | D993A); test: pull-down; N-terminal His-tagged TTP or DSAD1 on Ni-NTA agarose beads, excess untagged DSR2 variants added, 1 h at 4 °C, 25 mM Tris-HCl pH 7.5, 300 mM NaCl, washes with 10 mM imidazole, SDS-PAGE with Coomassie staining; settings: both partners purified
T2 construct: DSR2 from Bacillus subtilis 29R, WP_029317421, with K960A and D993A; source: E. coli Rosetta (DE3), purified (Ni-NTA, TEV cleavage, anion exchange, gel filtration); not shown: His, N-terminal, cleaved; MBP, N-terminal, cleaved
T2 sequence (looked up): T1 sequence (looked up) with K960A, D993A

B1: DSR anti-defense 1 (DSAD1), His-tagged (natural protein)
chain: MIEIFKDTGATHDLVYHSKINTFVWDVEFDIVLSDSKELNKCYFVKCFNPYRINGKCDFAVSSIDIFSEGKRLLIENEFNFKITKAVHVATSKDVTEIVLHLSERISSPFPIVKEVVYLD
notes: phage-encoded DSAD1, WP_004399562; aa 1-9 not built in the cryo-EM model; Cloned into a pET-derived vector with an N-terminal His tag; also called anti-DSR2 protein; His-tagged DSAD1; source: E. coli Rosetta (DE3), purified (Ni-NTA, anion exchange, gel filtration); not shown: His, N-terminal, kept
**Q.** What does the source list for B1?
**A.** binding result [1]: binds; binding result (DSR2 K960A/D993A): binds
